Experimental data: patent publication US5811533, “High-affinity oligonucleotide ligands to vascular endothelial growth factor (VEGF)” (NeXstar Pharmaceuticals, Inc.)

Legend:
[1] = target: T1, VEGF165 (recombinant human vascular endothelial growth factor, 165 aa form) (Homo sapiens, UniProt P15692-4 P15692-4:27-191); assay: filter; details: tags: gift from N. Ferrara, Genentech; chain copies: 2 (dimer, stated)
[2] = target: T1, VEGF165 (recombinant human vascular …); assay: filter; details: tags: gift from N. Ferrara, Genentech; chain copies: 2 (dimer, stated); remark: listed apart in the source
Method: (§1) Internally-labeled RNA ligands used for binding studies were prepared by in vitro transcription using T7 RNA polymerase (Milligan et al. (1987) Nucl. Acids Res. 15:8783) and were purified on denaturing polyacrylamide gels to ensure size homogeneity. All RNA ligands were diluted to about 1 nM in PBS, denatured at 90° C. for 2 minutes, and then cooled on ice prior to incubation with the protein. This denaturation/renaturation cycle performed at high dilution is necessary to ensure that the RNA is essentially free from dimers and other higher order aggregates. Concentrations of the stock solutions of VEGF, from which other dilutions were made, were determined from the absorbance reading at 280 nm using the calculated value for ε280 of 46,600 M^-1cm^-1 for the VEGF dimer (Gill et al. (1989) Anal. Biochem. 182:319). Data sets that define the binding curves were fit to either eq. 2 or eq. 5 by the non-linear least squares method using the software package Kaleidagraph (Synergy Software, Reading, Pa.).
(§2) To this end, certain ligands were synthesized and tested for binding affinity. The binding studies were performed using the protocols described in Example 1.

[3] = target: T1, VEGF165 (recombinant human vascular …); assay: inhibition; VEGF receptor binding; details: tags: gift from N. Ferrara, Genentech; chain copies: 2 (dimer, stated)
Method: VEGF was radioiodinated by the Iodegen method (Jakeman et al. (1992) J. Clin. Invest. 89:244) to a specific activity of 2.4×10^4 cpm/ng. Human umbilical vein endothelial cells (HUVECs) were plated in 24-well plates at a density of 1–2×10^5 cells/well and grown to confluence in EGM (Clonetics, San Diego, Calif.) media (24–48 hrs). At confluence, the cells were washed 3 times with PBS and incubated for 2 hrs at 4° C. in α-MEM serum-free media containing ^125I-labeled VEGF with or without unlabeled competitor (VEGF, EGF, or RNA). For experiments done with RNA, 0.2 units of placental RNase inhibitor (Promega, Madison, Wis.) were included in the media. […] At the end of the 2 hr incubation period, the supernatant was removed and the wells washed 2 times with PBS. HUVECs were then lysed with 1% triton X-100/1M NaOH and the amount of cell-associated ^125I-VEGF determined by gamma counting.
as §2

[4] = target: T1, VEGF165 (recombinant human vascular …); assay: FP filter; nitrocellulose filter; Kd1, X1 0.62, Kd2 ~100 nM; details: tags: gift from N. Ferrara, Genentech; chain copies: 2 (dimer, stated)
[5] = target: T1, VEGF165 (recombinant human vascular …); assay: filter; Kd1, X1 0.74, Kd2 ~100 nM; details: tags: gift from N. Ferrara, Genentech; chain copies: 2 (dimer, stated)
[6] = target: T1, VEGF165 (recombinant human vascular …); assay: filter; Kd1, X1 0.82, Kd2 10-100 nM; details: tags: gift from N. Ferrara, Genentech; chain copies: 2 (dimer, stated)
[7] = target: T1, VEGF165 (recombinant human vascular …); assay: filter; Kd1, X1 0.42, Kd2 ~100 nM; details: tags: gift from N. Ferrara, Genentech; chain copies: 2 (dimer, stated)
[8] = target: T1, VEGF165 (recombinant human vascular …); assay: filter; PBS, 0.01% HSA, 37 C; Kd1, X1 0.56, Kd2 21 nM; details: tags: gift from N. Ferrara, Genentech; chain copies: 2 (dimer, stated); label: 32P
Method: as §1, with “Pa.). […]” for “Pa.).”

[9] = target: T1, VEGF165 (recombinant human vascular …); assay: filter; Kd1, X1 0.50, Kd2 15 nM; details: tags: gift from N. Ferrara, Genentech; chain copies: 2 (dimer, stated)
[10] = target: T1, VEGF165 (recombinant human vascular …); assay: filter; clone listed in families 1 and 2; details: tags: gift from N. Ferrara, Genentech; chain copies: 2 (dimer, stated)
[11] = target: T1, VEGF165 (recombinant human vascular …); assay: filter; PBS, 0.01% HSA, 37 C; Kd1, X1 0.73, Kd2 82 nM; details: tags: gift from N. Ferrara, Genentech; chain copies: 2 (dimer, stated); label: 32P
Method: as §1, with “Pa.). […]” for “Pa.).”

[12] = target: bFGF (UniProt P09038 P09038:143-288); assay: filter; specificity; details: label: 32P
Method: (§3) Dissociation constants were determined using the nitrocellulose filter partitioning technique.

[13] = target: antithrombin III (UniProt P01008 P01008:33-464); assay: filter; specificity; details: label: 32P
Method: as §3

[14] = target: T1, VEGF165 (recombinant human vascular …); assay: filter; Kd1, X1 0.77, Kd2 10-100 nM; details: tags: gift from N. Ferrara, Genentech; chain copies: 2 (dimer, stated)
[15] = target: T1, VEGF165 (recombinant human vascular …); assay: filter; Kd1, X1 0.79, Kd2 ~100 nM; details: tags: gift from N. Ferrara, Genentech; chain copies: 2 (dimer, stated)
[16] = target: T1, VEGF165 (recombinant human vascular …); assay: filter; PBS, 0.01% HSA, 37 C; Kd1, X1 0.76, Kd2 182 nM; details: tags: gift from N. Ferrara, Genentech; chain copies: 2 (dimer, stated); label: 32P
Method: as §1, with “Pa.). […]” for “Pa.).”

T1 sequence (P15692 other isoform, or with tags, fused parts or gaps): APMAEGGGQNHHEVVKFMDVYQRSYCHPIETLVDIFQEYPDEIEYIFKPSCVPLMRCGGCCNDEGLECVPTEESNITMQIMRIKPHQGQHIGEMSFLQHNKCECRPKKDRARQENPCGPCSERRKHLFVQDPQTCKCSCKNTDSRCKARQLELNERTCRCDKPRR
Sequence of antithrombin III (P01008 33-464, one chain of several): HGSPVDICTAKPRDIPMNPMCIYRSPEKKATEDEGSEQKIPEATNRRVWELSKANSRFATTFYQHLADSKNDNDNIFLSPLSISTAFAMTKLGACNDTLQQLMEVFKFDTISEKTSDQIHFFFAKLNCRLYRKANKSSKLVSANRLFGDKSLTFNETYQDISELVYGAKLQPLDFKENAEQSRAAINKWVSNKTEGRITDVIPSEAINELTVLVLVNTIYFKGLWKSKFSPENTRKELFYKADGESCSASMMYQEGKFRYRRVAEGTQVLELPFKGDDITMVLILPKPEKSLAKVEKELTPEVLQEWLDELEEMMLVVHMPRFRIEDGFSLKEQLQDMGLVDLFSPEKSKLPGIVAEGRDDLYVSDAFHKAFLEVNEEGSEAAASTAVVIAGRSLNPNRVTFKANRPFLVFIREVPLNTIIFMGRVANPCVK
Sequence of bFGF (P09038 143-288, one chain of several): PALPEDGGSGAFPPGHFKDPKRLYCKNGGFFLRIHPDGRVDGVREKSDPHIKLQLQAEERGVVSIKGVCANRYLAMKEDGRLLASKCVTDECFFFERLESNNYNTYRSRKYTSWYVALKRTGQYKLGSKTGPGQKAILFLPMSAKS

B1: ssDNA b88 (ssDNA)
DNA: CTACCTACGATCTGACTAGCGCAAGGGGTCCTGCCGAATGGGGGAATACGCTAGCCGAAAGCTTACTCTCATGTAGTTCCT
Kd [1]: 34 nM

B2: NX-214 (mixed)
mixed: TTTTACCCUGAUGGUAGACGCCGGGGUGTTTTT
modifications: 2'-NH2/2'-OMe variant (position code lost in text); 5' and 3' phosphorothioate thymidine caps
Kd [2]: 0.2 nM | Ki [3]: 1 nM

TTTTACCCUGAUGGUAGACGCCGGGGUGTTTTT (mixed, as NX-213 plus internal phosphorothioate between A7 and U8) [NX-215]
Kd [2]: 0.2 nM | Ki [3]: 1 nM

TTTTACCCUGAUGGUAGACGCCGGGGUGTTTTT (mixed, all 2'-OMe core; 5' and 3' phosphorothioate thymidine caps) [NX-191]
Kd [2]: 120 nM | Ki [3]: 500 nM

B3: NX-213 (mixed)
mixed: TTTTACCCUGAUGGUAGACGCCGGGGUGTTTTT
modifications: 2'-NH2 pyrimidines; all purines 2'-OMe except four; 5' and 3' phosphorothioate thymidine caps
Kd [2]: 0.2 nM | Ki [3]: 1 nM

B4: NX-178 (mixed)
mixed: TTTTACCCUGAUGGUAGACGCCGGGGUGTTTTT
modifications: 2'-NH2 pyrimidines; 5' T*T*T*T* and 3' T*T*T*T*T phosphorothioate thymidine caps
Kd [2]: 0.7 nM | Ki [3]: 1 nM

B5: ssDNA b98 (ssDNA)
DNA: CTACCTACGATCTGACTAGCGATCCACGAAGAAGCTTACTCTCATGTAGTTCCAGCTTACTCTCATGTAGTTCCT
Kd [1]: > 100 nM

ACCCUGAUGGUAGACGCCGGGGUG (ssRNA, modified variant of NX-107 (position code lost in text)) [NX-176]
Kd [2]: 65 nM | Ki [3]: 10 nM

B6: ssDNA 1 (ssDNA)
DNA: ATCCGCCTGATTAGCGATACTTCTGCGAGAGACCTACTGGAACGTTTTGTGATATTCACAACTTGAGCAAAATCACCTGCAGGGG
Kd [1]: 12 nM

B7: 17B (ssRNA)
RNA: GGGAGGACGAUGCGGCGCUGUGUUCAAUGCGGGGAUCGGGCCGGAGGAUGAACAAAUGGCGGGUCAGACGACUCGCCCGA
modifications: 2'-NH2 pyrimidines
Kd [4]: 0.028 nM

B8: 26B (ssRNA)
RNA: GGGAGGACGAUGCGGCACCUUCGUGGGGUCAAGGAGGGUCGCGAGGCCGCAGGAUCAACCGUGUGCAGACGACUCGCCCGA
modifications: 2'-NH2 pyrimidines
Kd [5]: 0.37 nM

B9: ssDNA b59 (ssDNA)
DNA: CTACCTACGATCTGACTAGCAACACGAGCATGTGGGGTCCCTTCCGAATGGGGGGTACAGGCTTAGCTTACTCTCATGTAGTTCCT
Kd [1]: 91 nM

B10: 34B (ssRNA)
RNA: GGGAGGACGAUGCGGUGUGGUCAAUGUGGGGUAGGGCUGGUAGGGCAUUCCGUACUGGUGUGGUCAGACGACUCGCCCGA
modifications: 2'-NH2 pyrimidines
Kd [6]: 0.068 nM

B11: 14A (ssRNA)
RNA: GGGAGACAAGAAUAACGCUCAAGCAACAGAGGCUGAUGGUAGACGCCGGCCAUUCGACAGGAGGCUCACAACAGGC
modifications: 2'-NH2 pyrimidines
Kd [7]: 0.7 nM

B12: ligand 12 (ssRNA)
RNA: GGGAGCUCAGAAUAAACGCUCAAGCAGACGAAGGGAACCUGCGUCUCGGCACCUUCGACAUGAGGCCCGGAUCCGGC
Kd [8]: 0.48 nM

B13: 32B (ssRNA)
RNA: GGGAGGACGAUGCGGCAACAUUGGCACCAAUGCUCUGUGUUAAUGUGGGGUGGGAACGGCGCCGCAGACGACUCGCCCGA
modifications: 2'-NH2 pyrimidines
Kd [9]: 0.05 nM

B14: ssDNA b99 (ssDNA)
DNA: CTACCTACGATCTGACTAGCCACGATAATCCTCCGAAAGCGTTGTCCGAATGGGTCGTTAGCTTAGCTTACTCTCATGTAGTTCCT
Kd [1]: 34 nM

B15: ssDNA b81 (ssDNA)
DNA: CTACCTACGATCTGACTAGCCCGAATGGGGCTGCGACTGCAGTGGACGTCACGTCGTTAGCTTACTCTCATGTAGTTCCT
Kd [10]: 0.3 nM

B16: ssDNA b60 (ssDNA)
DNA: CTACCTACGATCTGACTAGCCCACCGCAGAGTGTTACACCCCATAGGAGAAGTCCGGATGGCTTAGCTTACTCTCATGTAGTTCCT
Kd [1]: 26 nM

GGAAGCUUGAUGGGUGACACACGUCAUGCCGAGCU (ssRNA) [ligand 44t]
Kd [11]: 0.48 nM | Kd [12]: 600 nM | Kd [13]: 12000 nM

GCAAGGGGTCCTGCCGAATGGGGGAATACGCTAGCCGAAA (ssDNA) [88t]
Kd [1]: 19 nM

B17: 30B (ssRNA)
RNA: GGGAGGACGAUGCGGCAUGGUUGUGAACUGUUGUGAUCAAUGCGGGGAGGGUAAUGGUGGGUGGUCAGACGACUCGCCCGA
modifications: 2'-NH2 pyrimidines
Kd [14]: 0.034 nM

B18: 24A (ssRNA)
RNA: GGGAGACAAGAAUAACGCUCAACCCUGAUGGUAGACGCCGGGGUGCCGGAAUUCGACAGGAGGCUCACAACAGGC
modifications: 2'-NH2 pyrimidines
Kd [15]: 0.71 nM

GGCCGGUAGUCGCAUGGCCCAUCGCGCCCGG (ssRNA) [ligand 100t]
Kd [12]: 1000 nM | Kd [13]: 3000 nM | Kd [16]: 0.42 nM

B19: ssDNA b85 (ssDNA)
DNA: CTACCTACGATCTGACTAGCGAGGAGGTGCGTTGTCCGAAGGGGTCGTTAGTCACCTCGTGCTTAGCTTACTCTCATGTAGTTCCT
Kd [1]: 0.15 nM
